Test results taken from patent US6361968, “Extension of a protein-protein interaction surface to inactive the function of a cellular protein” (The United States of America as represented by the …).

T1: VBP-C/EBP chimera (VBP basic region, C/EBP leucine zipper) (Gallus gallus / Rattus norvegicus?)
T1 chain: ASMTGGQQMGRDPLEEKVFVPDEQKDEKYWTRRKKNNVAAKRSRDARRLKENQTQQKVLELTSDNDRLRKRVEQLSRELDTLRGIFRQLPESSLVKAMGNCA

B1: 28 bp C/EBP site probe (dsDNA)
DNA 1: GTCAGTCAGATTGCGCAATATCGGTCAG
DNA 2: CTGACCGATATTGCGCAATCTGACTGAC
B2: C/EBP consensus site in CAT reporter promoter (dsDNA)
DNA 1: ATTGCGCAAT
DNA 2: ATTGCGCAAT

What was measured:
[1] = target: T1, VBP-C/EBP chimera (VBP basic region, …); experiment: competition; calculated from displacement by 0-3heptad-F dominant negatives, Trp fluorescence, 25 C, 150 mM KCl, 12.5 mM phosphate pH 7.4; details: chain copies: 2 (stated)
Experimental: FIG. 14A: 3heptad-F inhibits C/EBP DNA binding. […] Protein was diluted four-fold in the successive lanes. […] FIG. 14B: Displacement of VBP-C/EBP from DNA by five dominant negatives (DNs) assayed by fluorescence. Fluorescence of a single tryptophan located in the basic region of VBP-C/EBP increased upon DNA binding (minutes 5–10). The addition of 1.1 molar equivalents of the F zipper or of the four different acidic extension caused a decrease in fluorescence. After 20 minutes, 10 more molar equivalents were added, causing an additional displacement of VBP-C/EBP from the DNA. 4heptad-F, shown in bold, causes the most dramatic displacement of VBP:C/EBP. […] This is not observed for the other four mixtures which return to the VBP-C/EBP-only baseline.

[2] = target: C/EBPalpha (UniProt P05554 P05554:1-358); experiment: cell_activity; CAT transactivation in HepG2; completely inhibited by 3heptad-F; details: tags: N-terminal FLAG; chain copies: 2 (inferred)
Source text: Human hepatoma cells (HepG2) were transiently transfected with three plasmids, a chloramphenicol acetyl transferase (CAT) expression plasmid driven by a single C/EBP cis element, the C/EBP transactivator, and different DNs. The histogram presents the extent of transactivation observed in the presence of different combinations of transactivator and dominant-negatives. In the absence of any DN, expressed C/EBP transactivated a single C/EBP site approximately 10 fold. […] This protein was able to transactivate a C/EBP containing promoter and was not inhibited by 3heptad-F.
In these experiments, 10 μg of reporter plasmid, 0.3 μg of transactivator, and 5 μg of DN were added to each transient transfection. […] Sheared salmon sperm DNA was added to bring the DNA concentrations to 20 μg. Calcium phosphate transfections were performed following the manufacturer's instructions (Gibco).

| Binder | Kd [1] | activity [2] |
| --- | --- | --- |
| B1 | 100 pM |  |
| B2 |  | ~10 fold |
